{"source": "paper PMC12485084", "target": "3xFLAG-TurboID-CaM C-lobe (human)", "test": "proximity labelling", "data": [{"substance": "3xFLAG-WT human TRPA1 (Transient Receptor Potential Ankyrin subtype 1) (from UniProt O75762 1-1119) (natural protein)", "values": [{"measurement": "percent increase in biotinylation with TurboID-CaM C-lobe versus free TurboID", "value": 40, "unit": "%"}]}]}
